The source of these data is patent publication US6348573B1, “Compositions and methods for identifying apoptosis signaling pathway inhibitors and activators” (The Regents of the University of Michigan, priority 1998, dated 2002).

For one assay, the system named is NF-KB. Kind of assay: NF-KB activation by RICK. Conditions: 293T cells. In kind it is cell-based, human.
The next assay addresses T1, caspase-8 (Homo sapiens, UniProt Q14790).
T1 construct: expressed in transfected cells; host or cells: human 293T cells
As to the kind of experiment: Caspase enzymatic assay (Ac-DEVD-AMC) after RICK co-transfection. Conditions: immunoprecipitated caspase-8, Ac-DEVD-AMC substrate. In kind it is biochemical. The protocol: Caspase Enzymatic Assay: The human FADD cDNA was cloned into the BamHI and XhoI sites of pcDNA3-myc to produce C-terminal myc-tagged FADD. 5×10^6 293T cells were transfected with 5 μg of pcDNA3, pcDNA3-caspase-8-AU1 or pcDNA3-caspase-8-mt-AU1 [N. Inohara et al., Proc. Natl. Acad. Sci. U.S.A. 94:10717-10722 (1997)] plus 5 μg of pcDNA3, pcDNA3-FADD-myc or pcDNA3- Flag-RICK. At 16 hours after transfection, cells were harvested and lysed with NP-40 buffer [N. Inohara et al., Proc. Natl. Acad. Sci. U.S.A. 94:10717-10722 (1997)]. AU1-tagged proteins were immunoprecipitated with mAb to AU1 and the Ac-DEVD-AMC cleavage activity was measured as previously described [N. Inohara et al., Proc. Natl. Acad. Sci. U.S.A. 94:10717-10722 (1997)].

Assay [1] has as its system 293T cells. As to the kind of experiment: Apoptosis assay, RICK co-transfection. Format: cell-based, human. Conditions: 293T cells. The protocol:
(§1) The total amount of transfected plasmid DNA was adjusted with pcDNA3 plasmid to be the same within individual experiments. After transfection, 293T cells were harvested at different times and lysed with 0.2% NP-40 isotonic lysis buffer [N. Inohara et al., Proc. Natl. Acad. Sci. U.S.A. 94:10717-10722 (1997)]. The B lymphocyte-derived BJAB cell line was stably trasnfected by electroporation with pcDNA3 or pcDNA3-Flag-RICK (K38M). After selection with […] (1 μg/ml), bulk cell lines were tested for RICK protein expression with anti-Flag antibody by flow cytometric analysis. For immunoprecipitation, 1 mg of soluble protein was incubated with 10 μg/ml of polyclonal anti-Flag, anti-myc or control antibody overnight at 4° C. and tagged proteins were immunoprecipitated with Protein A-Sepharose 4B (Zymed Laboratories Inc.). Immunoprecipitated proteins or total lysates were subjected to 12% SDS-polyacrylamide electrophoresis and immunoblotted with monoclonal antibodies (mAb) to HA (Boeringer Mannheim) or Flag (Kodak).
Apoptosis Assays: 5×10^5 293T cells were co-transfected with 0.2 μg of pcDNA3-β-gal plus each expression plasmid in triplicate by the calcium phosphate method as reported [N. Inohara et al., Proc. Natl. Acad. Sci. U.S.A. 94:10717-10722 (1997)]. In some experiments, 20 μM of the caspase inhibitor zVAD-fmk (Enzyme Systems Products) or 12.5 μl of medium from […] cells producing Fas ligand (Immunex Corporation, Seattle, Wash.) was added at 8 hrs after transfection. At 18 or 24 hours after transfection, cells were fixed, stained for β-galactosidase as described [N. Inohara et al., Proc. Natl Acad. Sci. U.S.A. 94:10717-10722 (1997)] and assayed for morphological features of apoptosis. At least 300 hundred blue-staining cells were counted. BJAB apoptosis induced by anti-Apol mAb was determined by flow cytometric analysis of nuclei stained with propidium iodide as described [R. Merino et al., J. Immunol. 155:3830-3838 (1995)]. Statistical significance was determined by one-way ANOVA followed by Student-Neuman-Keuls post-doc comparisons.

Assay [2] deals with caspase-1, caspase-2, caspase-3, caspase-4, caspase-8, CED-3, CED-4, Bcl-XL, TRAF2, c-IAP-1, c-IAP-2 or RAIDD. As to the kind of experiment: Association of RICK with other apoptosis regulatory proteins. In kind it is binding. Conditions: 293T lysates. The protocol:
as §1

The target in assay [3] is T2, CLARP (Homo sapiens, UniProt O15519). As to the kind of experiment: Co-immunoprecipitation of RICK with CLARP. Format: binding. The protocol: as §1
The target in assay [4] is T3, FADD (Homo sapiens, UniProt Q13158).
T3 construct: made in house
T3 sequence (Q13158 1-208): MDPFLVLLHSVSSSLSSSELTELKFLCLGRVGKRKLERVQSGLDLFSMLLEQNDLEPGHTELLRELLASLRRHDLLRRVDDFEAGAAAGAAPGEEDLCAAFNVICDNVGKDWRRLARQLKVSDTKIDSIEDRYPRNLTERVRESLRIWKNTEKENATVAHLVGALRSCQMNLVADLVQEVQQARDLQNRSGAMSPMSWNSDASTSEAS
As to the kind of experiment: In vitro phosphorylation of recombinant FADD by RICK immunoprecipitates. Conditions: immunoprecipitates from 293T cells, 5 μM [γ-32P]ATP. Format: biochemical. From the text: CIPERK proteins in total lysate were detected by immunoblotting with mAb to Flag (middle panel). Recombinant FADD on the same filter used in (A) was detected by immunoblotting, with rabbit polyclonal anti-(His)6 antibody (lower panel). Note CIPERK was autophosphorylated. The estimated molecular size is shown on the left [293T cells were transfected with vector control or plasmid expressing Flag-CIPERK (WT) or Flag-CIPERK-K38M (mt), and then CIPERK proteins were immunoprecipitated by mAb to Flag and incubated with recombinant FADD and 5 μM [γ-^32P]ATP].

In assay [5] the target is T3, FADD. Kind of assay: FADD phosphorylation in transfected cells. Format: cell-based. Conditions: 293T cells, co-expression with CLARP. The protocol: Therefore, next it was determined whether expression of CIPERK can regulate the phosphorylation of FADD in vivo. Expression plasmids producing HA-CLARP, Flag-CIPERK and AU1-FADD were transiently transfected into 293T cells, and the expression of FADD was monitored by immunoblotting with anti-AU1 antibody. Transfection of plasmids producing either FADD or FADD plus CIPERK induced the expression of two closely migrating AU1-tagged FADD proteins of ˜27 kDa (FIG. 12A). In contrast, co-expression of FADD, CIPERK and CLARP induced the expression of two additional FADD bands migrating at ˜30 kDa (FIG. 12A), previously shown to represent phosphorylated FADD [B. Z. Stanger et al., Cell 81:513-523 (1995)]. […] The increased induction of FADD phosphorylation by CLARP was specific in that was not observed when FADD was co-expressed with only CIPERK and caspase-8 (FIG. 12A). Furthermore, FADD phosphorylation was induced by ectopic expression of CD95 (FIG. 12B), a stimulus known to induce CD95 oligomerization and activation [J. P. Medema et al., EMBO J. 16:2794 -2804 (1997); B. Z. Stanger et al., Cell 81:513-523 (1995)].

The target of assay [6] is T2, CLARP. Kind of assay: Co-immunoprecipitation of RICK with CLARP. Also noted: expressed in transfected cells; host or cells: human 293T cells. Conditions: CLARP-C (residues 246-480). Format: binding. The protocol:
as §1

For assay [7], the system named is 293T cells. As to the kind of experiment: Apoptosis assay, CIDE transfection. Conditions: 293T cells. Format: cell-based, human. As to the method:
Apoptosis Assays, fluorescence staining of nuclear DNA and DNA fragmentation assay: 5×10^5 293T cells were co-transfected with 0.2 μg of pcDNA3-β-gal plus each expression plasmid in triplicate by the calcium phosphate method as reported [N. Inohara et al, “CLARP, a death effector domain-containing protein interacts with caspase-8 and regulates apoptosis,” Proc. Natl. Acad. Sci. USA 94:10717-10722 (1997a)].
MCF7 were cotransfected with vector control or CIDE-A and β-galactosidase-expressing reporter construct by Lipofectamine (Gibco BRL) according to the manufacturer's instructions. In some experiments, 20 μM zVAD-fmk (benzyloxycarbonyl-Val-Ala-Asp-(OMe)-fluoromethylketone), zFA-fmk (benzyloxycarbonyl-Phe-Ala-(OMc)-fluoromethylketone) and zDEVD-fmk (benzyloxycarbonyl-Asp-Glu-Val-Asp-(OMe)-fluoromethylketone) were added into medium at 8 hr after transfection. zFA-fmk, zVAD-fmk and zDEVD-fmk were obtained from Enzyme Systems. At 24 hours after transfection, cells were fixed, stained for β-galactosidase as described [N. Inohara et al., “CLARP, a death effector domain-containing protein interacts with caspase-8 and regulates apoptosis,” Proc. Natl. Acad. Sci. USA 94:10717-10722 (1997a)] and assayed for morphological features of apoptosis. At least 300 hundred blue-staining cells were counted. Statistical significance was determined by one-way ANOVA followed by Student-Neuman-Keuls post-doc comparisons.
(§2) Nuclear staining with acridine-orange was performed as described [N. Inohara et al., “harakiri, a novel regulator of cell death, encodes a protein that activates apoptosis and interacts selectively with survival-promoting proteins Bcl-2 and Bcl-XL.,” EMBO J. 16:1686-1694 (1997b)]. Genomic DNA was extracted and analyzed for DNA fragmentation as described [X. Liu et al., “Apaf-1, a human protein homologous to C. elegans CED-4, participates in cytochrome c-dependent activation of caspase-3,” Cell 90:405-413 (1997)].

In assay [8] the test system is 293T cells. Kind of assay: DNA fragmentation assay. Format: cell-based, human. Conditions: co-expression. The protocol:
as §2

A further assay has as its system SHEP cells. As to the kind of experiment: Apoptosis in SHEP cells. Conditions: data not shown. Format: cell-based.

T1 sequence (Q14790 1-496 isoform Q14790-4): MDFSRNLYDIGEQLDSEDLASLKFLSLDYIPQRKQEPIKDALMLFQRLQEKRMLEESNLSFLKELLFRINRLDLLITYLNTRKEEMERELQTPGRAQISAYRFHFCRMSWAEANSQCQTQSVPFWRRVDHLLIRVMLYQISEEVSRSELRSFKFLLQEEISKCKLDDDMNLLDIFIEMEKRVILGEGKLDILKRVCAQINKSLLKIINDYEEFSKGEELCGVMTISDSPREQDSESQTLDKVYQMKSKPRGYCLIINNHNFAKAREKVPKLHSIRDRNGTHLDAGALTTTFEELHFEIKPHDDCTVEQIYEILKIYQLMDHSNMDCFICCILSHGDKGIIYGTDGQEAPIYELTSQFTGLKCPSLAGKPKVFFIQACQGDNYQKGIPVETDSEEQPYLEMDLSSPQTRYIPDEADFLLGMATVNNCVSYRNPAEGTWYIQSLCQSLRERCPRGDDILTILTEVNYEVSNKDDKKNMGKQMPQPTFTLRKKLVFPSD

As to “RICK: RIP-like interacting CLARP kinase, protein of 531 amino acids (SEQ ID NO:1)”, in the assay on NF-KB, the “activation of NFkB” value is given as “induction of NFkB”. The “enzymatic activity of wild-type (wt) caspase-8” value with caspase-8 is reported as “enhanced”. Further, the “induction of apoptosis by expression of RICK” value in the assay with 293T cells [1] (RICK alone) was “did not”. In addition, the “apoptosis induced by FADD, CLARP and caspase-8” value in the assay with 293T cells [1] (co-expression of wt or mutant RICK) was “enhanced”. In the assay with 293T cells [1] (co-expression with RICK), the “apoptosis promoted by caspase-8” value is reported as “augmented” and the “apoptosis promoted by caspase-10” value is listed as “augmented”. Further, the “apoptosis induced by caspase-8-mt” value in the assay on 293T cells [1] (co-expression with RICK, Cys377 to Ser mutant) is on record as “did not augment”. Also, the “association with multiple apoptosis regulatory proteins (caspase-1, -2, -3, -4, -8, CED-3, CED-4, Bcl-XL, TRAF2, c-IAP-1, c-IAP-2, RAIDD)” value in assay [2] is reported as “did not associate”. Also, in the assay with CLARP [3] (293T lysates), the “co-immunoprecipitation with CLARP” value is recorded as “co-immunoprecipitated”. In the assay with CLARP [3] (CLARP-N), the “interaction with the N-terminal DED-containing domain of CLARP” value was “not”. Moreover, the “phosphorylation of recombinant FADD” value in the assay with FADD [4] is “induced phosphorylation”. Also, the “phosphorylation of FADD in cells” value with FADD [5] is “induced the phosphorylation of FADD in the presence of CLARP”. In the assay with CLARP [6], the “interaction with the C-terminal caspase-like domain of CLARP” value is “interacted”.

B1: DFF45: 45 kDa subunit of the DNA fragmentation factor (protein, UniProt O00273 1-331, looked up)
DNA fragmentation factor …: MEVTGDAGVPESGEIRTLKPCLLRRNYSREQHGVAASCLEDLRSKACDILAIDKSLTPVTLVLAEDGTIVDDDDYFLCLPSNTKFVALASNEKWAYNNSDGGTAWISQESFDVDETDSGAGLKWKNVARQLKEDLSSIILLSEEDLQMLVDAPCSDLAQELRQSCATVQRLQHTLQQVLDQREEVRQSKQLLQLYLQALEKEGSLLSKQEESKAAFGEEVDAVDTGISRETSSDVALASHILTALREKQAPELSLSSQDLELVTKEDPKALAVALNWDIKKTETVQEACERELALRLQQTQSLHSLRSISASKASPPGDLQNPKRARQDPT
As to B1, the “induction of apoptosis (killing) of 293T cells by expression” value in the assay on 293T cells [7] is given as “did not induce apoptosis”. Moreover, in the assay with 293T cells [7] (co-expression), the “apoptosis induced by CLARP” value was “inhibited”, the “apoptosis induced by Fas” value was “inhibited”, the “apoptosis of the CIDE-A (108-199) mutant” value is “not inhibited” and the “killing activity of CIDE-A” value is “inhibited significantly”. In the assay on 293T cells [7] (co-expression), the “killing activity of CIDE-B” value is “inhibited significantly”. In addition, the “DNA fragmentation induced by CIDE-A” value with 293T cells [8] was “inhibited”.

B2: CIDE-B: cell death-inducing DFF45-like effector B, mouse protein of 219 amino acids (protein, listed as Mus musculus)
chain: MEYLSAFNPNGLLRSVSTVSSELSRRVWNSAPPPQRPFRVCDHKRTVRKGLTAASLQELLDKVLETLLLRGVLTLVLEEDGTAVDSEDFFQLLEDDTCLMVLEQGQSWSPKSGMLSYGLGREKPKHSKDIARITFDVYKQNPRDLFGSLNVKATFYGLYSMSCDFQGVGPKRVLRELLRGTSSQLQGLGHMLLGISSTLRHVVEGADRWQWHGQRHLHS
Take B2: the “induction of apoptosis (killing) of 293T cells by expression” value with 293T cells [7] is “induced significant killing of 293T cells in a dose dependent manner”. Also, the “induction of apoptosis in SHEP cells” value in the assay with SHEP cells was “induced apoptosis”.
